Data from doi:10.1101/2021.03.12.434960.

molecular target: taxol-stabilised microtubules of porcine brain tubulin (pig (porcine brain)) (UniProt P02550); assay: single-molecule TIRF microscopy on surface-bound microtubules

Chain of K420A (human KIF5A aa 1-416, C-terminal mScarlet-StrepII) (Q12840 1-416, stated change not applied): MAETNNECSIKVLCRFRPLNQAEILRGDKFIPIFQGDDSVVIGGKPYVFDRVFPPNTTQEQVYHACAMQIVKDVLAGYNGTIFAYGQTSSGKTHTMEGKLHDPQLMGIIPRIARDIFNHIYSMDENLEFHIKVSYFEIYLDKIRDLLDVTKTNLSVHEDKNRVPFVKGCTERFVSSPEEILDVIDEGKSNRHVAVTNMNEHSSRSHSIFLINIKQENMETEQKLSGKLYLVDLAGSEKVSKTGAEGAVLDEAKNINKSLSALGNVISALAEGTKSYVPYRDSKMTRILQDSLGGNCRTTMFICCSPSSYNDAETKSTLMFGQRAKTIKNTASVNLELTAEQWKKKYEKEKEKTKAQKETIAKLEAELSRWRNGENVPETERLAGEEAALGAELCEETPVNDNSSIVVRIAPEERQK
Chain of full-length human KIF5C, C-terminal mScarlet-StrepII (O60282 whole entry): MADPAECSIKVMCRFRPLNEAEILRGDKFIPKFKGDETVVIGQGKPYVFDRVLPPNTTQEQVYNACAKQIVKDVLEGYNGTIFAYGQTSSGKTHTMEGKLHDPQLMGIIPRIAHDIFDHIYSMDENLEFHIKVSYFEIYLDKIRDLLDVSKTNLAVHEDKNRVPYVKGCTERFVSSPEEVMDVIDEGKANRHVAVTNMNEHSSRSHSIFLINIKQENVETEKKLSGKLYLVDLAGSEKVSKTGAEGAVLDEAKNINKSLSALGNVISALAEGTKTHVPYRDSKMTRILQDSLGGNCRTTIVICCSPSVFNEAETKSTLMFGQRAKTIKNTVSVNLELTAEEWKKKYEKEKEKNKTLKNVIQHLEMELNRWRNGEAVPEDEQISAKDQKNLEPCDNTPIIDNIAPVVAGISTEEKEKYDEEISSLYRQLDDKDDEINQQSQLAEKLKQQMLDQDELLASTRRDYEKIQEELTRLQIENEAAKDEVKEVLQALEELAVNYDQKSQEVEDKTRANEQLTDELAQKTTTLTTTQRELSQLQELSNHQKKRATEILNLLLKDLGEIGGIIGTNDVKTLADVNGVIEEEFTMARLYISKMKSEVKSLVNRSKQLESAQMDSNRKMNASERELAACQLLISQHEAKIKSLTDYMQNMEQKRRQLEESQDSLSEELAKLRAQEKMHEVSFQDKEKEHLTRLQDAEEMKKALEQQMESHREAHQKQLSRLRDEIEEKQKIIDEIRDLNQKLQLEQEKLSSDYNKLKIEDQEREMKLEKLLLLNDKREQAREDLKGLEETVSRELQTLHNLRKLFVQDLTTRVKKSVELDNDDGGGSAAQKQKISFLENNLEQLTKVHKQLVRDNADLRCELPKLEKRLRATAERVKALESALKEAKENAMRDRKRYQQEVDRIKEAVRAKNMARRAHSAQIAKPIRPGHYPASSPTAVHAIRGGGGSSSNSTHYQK
Chain of full-length human KIF5A, C-terminal mScarlet-StrepII (Q12840 whole entry): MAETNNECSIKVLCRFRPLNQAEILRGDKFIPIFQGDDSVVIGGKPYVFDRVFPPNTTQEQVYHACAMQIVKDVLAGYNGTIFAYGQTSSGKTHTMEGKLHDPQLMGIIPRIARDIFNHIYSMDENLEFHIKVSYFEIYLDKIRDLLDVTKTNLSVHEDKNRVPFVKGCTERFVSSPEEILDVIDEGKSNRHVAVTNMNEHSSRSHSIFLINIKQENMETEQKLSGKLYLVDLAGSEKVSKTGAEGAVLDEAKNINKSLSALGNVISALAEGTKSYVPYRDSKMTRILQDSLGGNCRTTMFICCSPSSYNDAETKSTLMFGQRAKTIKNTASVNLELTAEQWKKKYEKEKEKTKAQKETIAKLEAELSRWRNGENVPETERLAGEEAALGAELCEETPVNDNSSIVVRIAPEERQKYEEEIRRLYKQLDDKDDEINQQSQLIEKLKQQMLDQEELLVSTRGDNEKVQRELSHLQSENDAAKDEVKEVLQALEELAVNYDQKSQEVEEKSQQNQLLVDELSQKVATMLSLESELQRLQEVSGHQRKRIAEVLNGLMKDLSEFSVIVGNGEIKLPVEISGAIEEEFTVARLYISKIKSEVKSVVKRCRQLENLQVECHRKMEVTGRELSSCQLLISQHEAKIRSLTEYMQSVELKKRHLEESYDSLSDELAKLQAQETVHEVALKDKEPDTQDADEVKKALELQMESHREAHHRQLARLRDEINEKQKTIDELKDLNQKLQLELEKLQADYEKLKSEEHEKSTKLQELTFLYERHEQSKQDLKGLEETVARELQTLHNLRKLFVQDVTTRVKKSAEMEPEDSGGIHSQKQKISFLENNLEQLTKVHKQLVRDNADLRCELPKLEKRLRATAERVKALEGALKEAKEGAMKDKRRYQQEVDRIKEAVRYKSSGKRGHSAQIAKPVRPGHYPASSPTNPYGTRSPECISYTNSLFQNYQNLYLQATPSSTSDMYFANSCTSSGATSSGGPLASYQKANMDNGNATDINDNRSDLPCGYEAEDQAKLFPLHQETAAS
Chain of K420C (human KIF5C aa 1-416, C-terminal mScarlet-StrepII) (O60282 1-416, stated change not applied): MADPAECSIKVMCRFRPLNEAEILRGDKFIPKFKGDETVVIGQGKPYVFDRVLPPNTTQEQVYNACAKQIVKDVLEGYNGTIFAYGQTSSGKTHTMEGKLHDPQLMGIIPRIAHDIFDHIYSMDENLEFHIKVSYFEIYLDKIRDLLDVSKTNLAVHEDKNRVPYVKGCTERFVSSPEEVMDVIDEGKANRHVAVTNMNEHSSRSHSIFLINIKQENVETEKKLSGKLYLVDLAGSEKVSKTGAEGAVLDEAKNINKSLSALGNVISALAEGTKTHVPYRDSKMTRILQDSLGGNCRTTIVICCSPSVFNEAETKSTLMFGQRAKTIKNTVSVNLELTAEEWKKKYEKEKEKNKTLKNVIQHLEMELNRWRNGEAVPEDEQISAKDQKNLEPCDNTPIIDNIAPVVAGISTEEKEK

Row | Substance | landing rate
1 | KIF5B-KLC1 tetramer (from UniProt P33176;Q07866) (complex) | 0.06 /μm/s/μM
2 | K420B (human KIF5B aa 1-420, C-terminal mScarlet-StrepII) (from UniProt P33176 1-420) (domain or fragment) | 146 /μm/s/μM
3 | KIF5A-KLC1 tetramer (from UniProt Q12840;Q07866) (complex) | 0.1 /μm/s/μM
4 | K420C (human KIF5C aa 1-416, C-terminal mScarlet-StrepII) (from UniProt O60282 1-416) (domain or fragment) | 147 /μm/s/μM
5 | full-length human KIF5B, C-terminal mScarlet-StrepII (from UniProt P33176 1-963) (natural protein) | 0.08 /μm/s/μM
6 | K420A (human KIF5A aa 1-416, C-terminal mScarlet-StrepII) (from UniProt Q12840 1-416) (domain or fragment) | 162 /μm/s/μM
7 | full-length human KIF5C, C-terminal mScarlet-StrepII (from UniProt O60282 1-957) (natural protein) | 0.1 /μm/s/μM
8 | KIF5B-Δhinge (Δ505-610), C-terminal mScarlet-StrepII (from UniProt P33176 1-963) (natural protein) | 3.6 /μm/s/μM

More lines, now with the values ahead:

Row | landing rate | Substance
9 | 0.06 /μm/s/μM | KIF5C-KLC1 tetramer (from UniProt O60282;Q07866) (complex)
10 | 8.1 /μm/s/μM | KIF5B-E178A, C-terminal mScarlet-StrepII (from UniProt P33176 1-963) (natural protein)
11 | 4.1 /μm/s/μM | KIF5B-IAK/AAA, C-terminal mScarlet-StrepII (from UniProt P33176 1-963) (natural protein)
12 | 4.4 /μm/s/μM | KIF5B-H129A, C-terminal mScarlet-StrepII (from UniProt P33176 1-963) (natural protein)
13 | 0.69 /μm/s/μM | full-length human KIF5A, C-terminal mScarlet-StrepII (from UniProt Q12840 1-1032) (natural protein)
